Publication PMC10681739, “High-throughput data and modeling reveal insights into the mechanisms of cooperative DNA-binding by transcription factor proteins”

B1: Table S2 A row 1753 (dsDNA)
DNA 1: TGAAGCAGGCGGAAGTGCTGTGGTTTCTGGCGACTG
DNA 2: CAGTCGCCAGAAACCACAGCACTTCCGCCTGCTTCA
B2: Table S2 A row 649 (dsDNA)
DNA 1: TCTGTCGTCCCACTTCCTGCTGCGGTTTCCACCTCG
DNA 2: CGAGGTGGAAACCGCAGCAGGAAGTGGGACGACAGA
B3: Table S2 A row 1263 (dsDNA)
DNA 1: TCACATTTTGCCGGATGTGGGTTGAGGGCATGCTGC
DNA 2: GCAGCATGCCCTCAACCCACATCCGGCAAAATGTGA
B4: Table S2 A row 271 (dsDNA)
DNA 1: CACCCCCCCAGTGCAGGAAGTGGTTTTCGAGGGCAG
DNA 2: CTGCCCTCGAAAACCACTTCCTGCACTGGGGGGGTG
B5: Table S2 A row 513 (dsDNA)
DNA 1: AGGACGGGCGGAAGTGGCTGCGGTGGATGGTGGGAG
DNA 2: CTCCCACCATCCACCGCAGCCACTTCCGCCCGTCCT
B6: Table S2 A row 462 (dsDNA)
DNA 1: TTCAACAGGATGTGGGAACTTGACTCTCGCCGCAAA
DNA 2: TTTGCGGCGAGAGTCAAGTTCCCACATCCTGTTGAA
B7: Table S2 A row 895 (dsDNA)
DNA 1: TCAAGTTTGGTAACAGGATGTGGTAGGAGGAACACA
DNA 2: TGTGTTCCTCCTACCACATCCTGTTACCAAACTTGA
B8: Table S2 A row 647 (dsDNA)
DNA 1: CCCAGCCCTGCTGCCGGATGTGGTGAGGCCCAGGTG
DNA 2: CACCTGGGCCTCACCACATCCGGCAGCAGGGCTGGG
B9: Table S2 A row 489 (dsDNA)
DNA 1: TCTAAATCACTTCCTGTTACAGAAACCACAGGCCTG
DNA 2: CAGGCCTGTGGTTTCTGTAACAGGAAGTGATTTAGA
B10: Table S2 A row 1302 (dsDNA)
DNA 1: AACAGACAGGATGTGGCCTCTGCCAAAACCACCATC
DNA 2: GATGGTGGTTTTGGCAGAGGCCACATCCTGTCTGTT
B11: Table S2 A row 702 (dsDNA)
DNA 1: CACCTCCTCTCCGGATGCGGTTTGTTCTGCTTGTAG
DNA 2: CTACAAGCAGAACAAACCGCATCCGGAGAGGAGGTG
B12: Table S2 A row 517 (dsDNA)
DNA 1: GTTAGCGTGATCGGAGGATGTGGTTTTCCTCCCTCT
DNA 2: AGAGGGAGGAAAACCACATCCTCCGATCACGCTAAC
B13: Table S2 A row 1548 (dsDNA)
DNA 1: TGCAGTCGTGAAAAAGGAAGTGGTTAAAGTGGCTAC
DNA 2: GTAGCCACTTTAACCACTTCCTTTTTCACGACTGCA
B14: Table S2 A row 658 (dsDNA)
DNA 1: AGCTAGGACAGGATGTGAAAACCACACTGACAAAGT
DNA 2: ACTTTGTCAGTGTGGTTTTCACATCCTGTCCTAGCT
B15: Table S2 A row 1174 (dsDNA)
DNA 1: CCTGCGGATCACGGAAGTGGCTGCGGTCGGCGCCAT
DNA 2: ATGGCGCCGACCGCAGCCACTTCCGTGATCCGCAGG
B16: Table S2 A row 568 (dsDNA)
DNA 1: GTGGGGCAGGATGTGCTTGCCTGGCTGCGGTTGGAC
DNA 2: GTCCAACCGCAGCCAGGCAAGCACATCCTGCCCCAC
B17: Table S2 A row 288 (dsDNA)
DNA 1: CATAGACCGGATGCCTCGTCAACCACAGAAACCAAT
DNA 2: ATTGGTTTCTGTGGTTGACGAGGCATCCGGTCTATG
B18: Table S2 A row 456 (dsDNA)
DNA 1: AACAGGCAAAGGACAGGATGTGGTGAGCGTCGGCCC
DNA 2: GGGCCGACGCTCACCACATCCTGTCCTTTGCCTGTT
B19: Table S2 A row 1449 (dsDNA)
DNA 1: GGGTTGGGTGCCGGATGCGGTGAGTGAGGTTCTCAT
DNA 2: ATGAGAACCTCACTCACCGCATCCGGCACCCAACCC
B20: Table S2 A row 99 (dsDNA)
DNA 1: CTTAGCACTTCAGCCGGAAACCACAGCATACATTTC
DNA 2: GAAATGTATGCTGTGGTTTCCGGCTGAAGTGCTAAG
B21: Table S2 A row 332 (dsDNA)
DNA 1: AACAGGAAGTGGTCTTAGAGATCATGCGGTTCAGAG
DNA 2: CTCTGAACCGCATGATCTCTAAGACCACTTCCTGTT
B22: Table S2 A row 524 (dsDNA)
DNA 1: TATCTCCTATCTCCAGGAAGTGGTTAGCCCTAGGAG
DNA 2: CTCCTAGGGCTAACCACTTCCTGGAGATAGGAGATA
B23: Table S2 A row 1496 (dsDNA)
DNA 1: GCACTGTAGGCAGGATGTGGGCAGGGGAAACTCAGG
DNA 2: CCTGAGTTTCCCCTGCCCACATCCTGCCTACAGTGC
B24: Table S2 A row 1364 (dsDNA)
DNA 1: CTCAGGGTACCAGGATGTGGTTTAGCTTAGGGGTGG
DNA 2: CCACCCCTAAGCTAAACCACATCCTGGTACCCTGAG
B25: Table S2 A row 721 (dsDNA)
DNA 1: AGTGCAGAGTGGACAGGATGTGGTGGAGGTGAGAGA
DNA 2: TCTCTCACCTCCACCACATCCTGTCCACTCTGCACT
B26: Table S2 A row 1115 (dsDNA)
DNA 1: TCAATGACAGGAAGTTTTTAAACCACATACGGCTAA
DNA 2: TTAGCCGTATGTGGTTTAAAAACTTCCTGTCATTGA
B27: Table S2 A row 1188 (dsDNA)
DNA 1: CCCACTGCGCCAGGATGTGGTCAGGTCGGTGACGTT
DNA 2: AACGTCACCGACCTGACCACATCCTGGCGCAGTGGG
B28: Table S2 A row 911 (dsDNA)
DNA 1: TTACACAACAGGAAACTATGTTTAGCGGTTAATCCA
DNA 2: TGGATTAACCGCTAAACATAGTTTCCTGTTGTGTAA
B29: Table S2 A row 1404 (dsDNA)
DNA 1: ATAGACTCAGGAAGTGATTGTGGTAAGATTCTATAT
DNA 2: ATATAGAATCTTACCACAATCACTTCCTGAGTCTAT
B30: Table S2 A row 1234 (dsDNA)
DNA 1: GCTGGTATGGCAGGAAGTTTCTCACCACAGTATACT
DNA 2: AGTATACTGTGGTGAGAAACTTCCTGCCATACCAGC
B31: Table S2 A row 309 (dsDNA)
DNA 1: CTTAGAGTACCAGGATGTGGTTTGGCCTGGGGGTGG
DNA 2: CCACCCCCAGGCCAAACCACATCCTGGTACTCTAAG
B32: Table S2 A row 1376 (dsDNA)
DNA 1: CTCTGGCAGGAAGCTCTGAGGGCTAAACCACAAAAA
DNA 2: TTTTTGTGGTTTAGCCCTCAGAGCTTCCTGCCAGAG
B33: Table S2 A row 990 (dsDNA)
DNA 1: TCCTAAAGCAGGAAATAGTGAGGCTACCGCAGTGTC
DNA 2: GACACTGCGGTAGCCTCACTATTTCCTGCTTTAGGA
B34: Table S2 A row 550 (dsDNA)
DNA 1: AGCAGGTATACCACTTCCTGTGGTTATCATTTGAGG
DNA 2: CCTCAAATGATAACCACAGGAAGTGGTATACCTGCT
B35: Table S2 A row 316 (dsDNA)
DNA 1: GGCCTGTCACACACAGGAAGCGGTCACAGAAAAGCT
DNA 2: AGCTTTTCTGTGACCGCTTCCTGTGTGTGACAGGCC
B36: Table S2 A row 1276 (dsDNA)
DNA 1: ATTTCGCTGAAAACAGGAAACCACGAAGCCCAGATG
DNA 2: CATCTGGGCTTCGTGGTTTCCTGTTTTCAGCGAAAT
B37: Table S2 A row 132 (dsDNA)
DNA 1: CGTCTAATTGCAGGAAGTGGTTTGAAATGTTAATCT
DNA 2: AGATTAACATTTCAAACCACTTCCTGCAATTAGACG
B38: Table S2 A row 1132 (dsDNA)
DNA 1: GCGCAAAGCCGGAAGGAGGGGTTTGCGGCTGGGGAG
DNA 2: CTCCCCAGCCGCAAACCCCTCCTTCCGGCTTTGCGC
B39: Table S2 A row 147 (dsDNA)
DNA 1: GCAGTCAGAAGGTGCGGATGCGGTAAGGTATGCGCT
DNA 2: AGCGCATACCTTACCGCATCCGCACCTTCTGACTGC
B40: Table S2 A row 155 (dsDNA)
DNA 1: GGGACAGACTCTCCAGGATGTGGTTGGATTTTGGGC
DNA 2: GCCCAAAATCCAACCACATCCTGGAGAGTCTGTCCC
B41: Table S2 A row 1419 (dsDNA)
DNA 1: TTCACTTCCACCACTTCCTGTGGGTTTTGTTCATCC
DNA 2: GGATGAACAAAACCCACAGGAAGTGGTGGAAGTGAA
B42: Table S2 A row 1604 (dsDNA)
DNA 1: GGTGTGTTCTGGGGAGGAAGTGGGTTTTCAGGTTGT
DNA 2: ACAACCTGAAAACCCACTTCCTCCCCAGAACACACC
B43: Table S2 A row 364 (dsDNA)
DNA 1: AATGAAGGAGGGGCAGGATGTGGTCTTGGTGAATCA
DNA 2: TGATTCACCAAGACCACATCCTGCCCCTCCTTCATT
B44: Table S2 A row 186 (dsDNA)
DNA 1: GAAGTGTGCTCTTCCGGTACCTGCGGTTCGTTGCGC
DNA 2: GCGCAACGAACCGCAGGTACCGGAAGAGCACACTTC

Target: ETS1:RUNX1 (Homo sapiens, UniProt P14921;Q01196 full;full)
Sequence (P14921 whole entry, chain 1 of 2): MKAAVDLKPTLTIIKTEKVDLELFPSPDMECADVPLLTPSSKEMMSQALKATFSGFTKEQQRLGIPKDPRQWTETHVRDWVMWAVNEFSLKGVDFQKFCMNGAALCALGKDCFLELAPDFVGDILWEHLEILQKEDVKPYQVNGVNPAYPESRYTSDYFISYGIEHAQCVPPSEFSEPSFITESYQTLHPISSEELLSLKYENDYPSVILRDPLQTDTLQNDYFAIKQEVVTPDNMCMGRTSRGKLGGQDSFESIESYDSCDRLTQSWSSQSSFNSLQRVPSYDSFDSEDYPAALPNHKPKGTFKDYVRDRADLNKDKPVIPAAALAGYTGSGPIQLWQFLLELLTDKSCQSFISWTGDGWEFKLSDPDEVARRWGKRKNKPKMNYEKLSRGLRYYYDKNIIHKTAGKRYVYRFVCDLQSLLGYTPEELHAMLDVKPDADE
Sequence (Q01196 whole entry, chain 2 of 2): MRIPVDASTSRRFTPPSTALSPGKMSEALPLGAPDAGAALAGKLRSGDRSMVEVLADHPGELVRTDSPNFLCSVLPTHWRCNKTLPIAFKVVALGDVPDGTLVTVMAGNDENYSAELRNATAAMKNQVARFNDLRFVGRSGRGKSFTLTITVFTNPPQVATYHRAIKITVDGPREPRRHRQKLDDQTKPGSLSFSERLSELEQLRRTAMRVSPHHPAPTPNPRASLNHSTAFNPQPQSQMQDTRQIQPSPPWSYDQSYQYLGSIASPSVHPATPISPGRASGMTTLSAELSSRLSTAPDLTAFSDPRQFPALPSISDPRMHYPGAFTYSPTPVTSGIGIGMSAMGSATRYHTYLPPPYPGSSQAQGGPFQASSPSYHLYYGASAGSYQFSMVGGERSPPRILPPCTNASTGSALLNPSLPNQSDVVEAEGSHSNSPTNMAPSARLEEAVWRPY
Assay: gcPBM; 1 nM ETS1 + 25 nM RUNX1, anti-ETS1 signal, normalised
Conditions: tags: N-terminal GST (pDEST15), kept (PMC6008103); copies: 1;1; label: surface-attached array probe

Binder | binding signal
B1 | 15300 PBM fluorescence, median of replicate spots
B2 | 14900 PBM fluorescence, median of replicate spots
B3 | 14600 PBM fluorescence, median of replicate spots
B4 | 14300 PBM fluorescence, median of replicate spots
B5 | 14100 PBM fluorescence, median of replicate spots
B6 | 13800 PBM fluorescence, median of replicate spots
B7 | 13400 PBM fluorescence, median of replicate spots
B8 | 13200 PBM fluorescence, median of replicate spots
B9 | 13000 PBM fluorescence, median of replicate spots
B10 | 12700 PBM fluorescence, median of replicate spots
B11 | 12500 PBM fluorescence, median of replicate spots
B12 | 12400 PBM fluorescence, median of replicate spots
B13 | 12100 PBM fluorescence, median of replicate spots
B14 | 11800 PBM fluorescence, median of replicate spots
B15 | 11700 PBM fluorescence, median of replicate spots
B16 | 11400 PBM fluorescence, median of replicate spots
B17 | 11200 PBM fluorescence, median of replicate spots
B18 | 10800 PBM fluorescence, median of replicate spots
B19 | 10600 PBM fluorescence, median of replicate spots
B20 | 10100 PBM fluorescence, median of replicate spots
B21 | 10100 PBM fluorescence, median of replicate spots
B22 | 9680 PBM fluorescence, median of replicate spots

Binder | binding signal
B23 | 9520 PBM fluorescence, median of replicate spots
B24 | 9440 PBM fluorescence, median of replicate spots
B25 | 9260 PBM fluorescence, median of replicate spots
B26 | 9230 PBM fluorescence, median of replicate spots
B27 | 9170 PBM fluorescence, median of replicate spots
B28 | 9030 PBM fluorescence, median of replicate spots
B29 | 8880 PBM fluorescence, median of replicate spots
B30 | 8760 PBM fluorescence, median of replicate spots
B31 | 8550 PBM fluorescence, median of replicate spots
B32 | 8390 PBM fluorescence, median of replicate spots
B33 | 8320 PBM fluorescence, median of replicate spots
B34 | 8000 PBM fluorescence, median of replicate spots
B35 | 7880 PBM fluorescence, median of replicate spots
B36 | 7820 PBM fluorescence, median of replicate spots
B37 | 7750 PBM fluorescence, median of replicate spots
B38 | 7650 PBM fluorescence, median of replicate spots
B39 | 7480 PBM fluorescence, median of replicate spots
B40 | 7450 PBM fluorescence, median of replicate spots
B41 | 7320 PBM fluorescence, median of replicate spots
B42 | 7210 PBM fluorescence, median of replicate spots
B43 | 7160 PBM fluorescence, median of replicate spots
B44 | 7140 PBM fluorescence, median of replicate spots
